# Measurements published in article PMC7833764.
# Experiments:
# [1] = target: human CD3 epsilon (CD3ε) (Homo sapiens) (UniProt P07766)
# [2] = target: human GUCY2C (guanylyl cyclase 2C), recombinant protein (human) (UniProt P25092)
# Sequence of UniProt P25092 (P25092 24-1073): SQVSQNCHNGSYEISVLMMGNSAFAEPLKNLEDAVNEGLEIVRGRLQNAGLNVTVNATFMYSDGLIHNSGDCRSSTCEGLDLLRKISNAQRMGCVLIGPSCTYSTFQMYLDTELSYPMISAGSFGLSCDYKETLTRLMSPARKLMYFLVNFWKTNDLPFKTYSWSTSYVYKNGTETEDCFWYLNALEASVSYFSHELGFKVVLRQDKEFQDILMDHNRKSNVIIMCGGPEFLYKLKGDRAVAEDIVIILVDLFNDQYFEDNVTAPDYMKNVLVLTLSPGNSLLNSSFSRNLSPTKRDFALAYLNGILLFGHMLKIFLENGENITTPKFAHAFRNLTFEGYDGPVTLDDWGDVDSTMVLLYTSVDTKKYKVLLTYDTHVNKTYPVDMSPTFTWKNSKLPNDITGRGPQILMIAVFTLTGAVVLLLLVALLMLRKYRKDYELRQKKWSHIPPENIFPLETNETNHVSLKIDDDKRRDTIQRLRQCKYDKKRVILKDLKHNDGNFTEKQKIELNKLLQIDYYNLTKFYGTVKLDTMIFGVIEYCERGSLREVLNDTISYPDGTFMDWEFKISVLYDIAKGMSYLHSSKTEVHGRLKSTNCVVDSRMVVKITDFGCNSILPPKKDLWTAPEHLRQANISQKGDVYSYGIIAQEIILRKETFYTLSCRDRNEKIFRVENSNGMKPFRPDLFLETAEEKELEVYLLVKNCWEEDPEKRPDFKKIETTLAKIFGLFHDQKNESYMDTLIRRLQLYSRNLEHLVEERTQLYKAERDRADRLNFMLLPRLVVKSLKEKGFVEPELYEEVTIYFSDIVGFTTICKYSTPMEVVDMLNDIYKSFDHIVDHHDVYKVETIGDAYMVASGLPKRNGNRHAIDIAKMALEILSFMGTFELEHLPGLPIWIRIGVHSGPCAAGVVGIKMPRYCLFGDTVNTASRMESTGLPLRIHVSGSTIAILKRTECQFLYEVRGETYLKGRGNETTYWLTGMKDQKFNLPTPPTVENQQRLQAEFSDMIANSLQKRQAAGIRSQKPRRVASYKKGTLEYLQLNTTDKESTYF
# Sequence of UniProt P07766 (P07766 23-207): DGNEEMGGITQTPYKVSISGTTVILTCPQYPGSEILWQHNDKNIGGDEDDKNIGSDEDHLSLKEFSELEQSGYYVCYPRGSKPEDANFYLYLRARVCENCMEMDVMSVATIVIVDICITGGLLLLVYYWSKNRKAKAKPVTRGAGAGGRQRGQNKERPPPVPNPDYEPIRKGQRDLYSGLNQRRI
substance,measurement,setting,value
"PF-07062119, anti-GUCY2C x anti-CD3ε T cell bispecific antibody (diabody-Fc)",fold lower affinity than GUCY2C-0247,[1],7.2 fold
same,fold lower affinity than GUCY2C-0247,[2],2.5 fold
